According to patent US4287300A, “Charge effects in enzyme immunoassays” (priority 1979, dated 1981):

Test system: β-galactosidase
Test: β-galactosidase activity assay with ONPG substrate
Format: biochemical
Details: after dithioerythritol treatment and Biogel A5M chromatography
Description: C. To 1.8 ml of a 35.3 mg/ml solution of the antiHIgG was added 60 μl (10 mg/ml DMF) of m-maleimidobenzoic acid NHS ester and the mixture allowed to stand at room temperature for 30 min, followed by the addition of 0.18 ml of 1 M sodium acetate, pH 5. The reaction mixture was then dialyzed 2×500 ml (degassed) 20 mM sodium acetate, pH 5, 0.15 M NaCl for 1 hr at room temperature. To a solution of 5 ml of β-galactosidase (1.47 mg/ml) was added 0.2 ml of 0.5 M phosphate, pH 7, followed by 2 ml of the above reaction product at a concentration of 31.1 mg/ml and the mixture incubated at room temperature for 4 hrs. The reaction was terminated by the addition of 0.2 ml of 10 mM cysteine-HCl and incubating for 0.5 hr to yield a final volume of 7.4 ml. […] Fractions 24 to 33 were collected to provide a volume of 50 ml with an optical density at 280 nm of 0.540 and a molar ratio of antibody to enzyme of about 5:1. […] Assaying for the enzyme employed a 10 μl fraction dissolved in 0.5 ml PBS, N3, Mg, RSA combined with 0.1 ml 20 mM ONPG in 0.4 ml buffer and measuring the rate at 37° at 420 nm for the interval between 10 to 20 secs after addition of the substrate.
D. The above procedure was repeated as follows. […] The assays were performed at 37° C., reading at 420 nm employing an assay solution of 10 μl of the conjugate, 0.9 ml PBS, N3, Mg, RSA and 0.1 ml of substrate (20 mM ONPG).

Question: Which enzyme activity does the source give for “β-galactosidase: β-galactosidase (Boehringer 150797), treated with dithioerythritol and chromatographed on Biogel A5M” here?
Answer: 477 u/mg of protein
